From US20130230527A1 (University of California, published 2013)

What was measured:
[1] = target: T1, biotin conjugated 24 amino acid peptide of the extracellular loop of human EMP2 (human, biotin conjugated (position not given)); assay: method and target not given; reference is the original scFv
T1 construct: The EMP2 part is followed by a GSGSK tail; also called hEMP2 peptide; hEMP2
T1 peptide: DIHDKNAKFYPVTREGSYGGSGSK

[2] = target: T1, biotin conjugated 24 amino acid peptide …; assay: ELISA, diabody titration on hEMP2 peptide on streptavidin plates
Protocol: (§1) 10 μg/mL of biotinylated 24 amino acid peptide (see the phage library selection section above) was coated onto streptavidin-coated 96-well plates (Roche Applied Science, Indianapolis, Ind.) in PBS for 1 hour at room temperature. Plates were then washed with PBS and blocked with 2% milk PBS for 2 hours at 37° C. Expressed phage antibodies or diabodies were added to each well, incubated at room temperature for 1 hour, and washed with 0.05% PBS/Tween three times. Bound antibodies or diabodies were detected with mouse anti-c-Myc (9E10) antibody (Calbiochem, San Diego, Calif.), followed by horseradish peroxidase (HRP) conjugated anti-mouse antibody (BD Bioscience Pharmingen, Franklin Lakes, N.J.) and TMB solution (eBioscience, San Diego, Calif.). Plates were read by microplate reader Model 550 (Bio-Rad, Hercules, Calif.) at 450 nm.
(§2) Specificity and titer of selected diabodies were initially tested by ELISA using plates coated with hEMP2 or mEMP2 peptides. […] Using monovalent scFv products of these two antibodies, the EC₅₀ for cognate EMP2 peptide was >2 μg/mL (data not shown). Thus, divalency contributed to the avidity of the two anti-EMP2 diabodies.

[3] = target: T2, biotin conjugated 24 amino acid peptide of the extracellular loop of mouse EMP2 (mouse, biotin conjugated (position not given)); assay: ELISA on peptide-coated plates
T2 construct: The EMP2 part is followed by a GSGSK tail; also called mEMP2 peptide; mEMP2
T2 peptide: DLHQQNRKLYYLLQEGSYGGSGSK
Protocol: as §1, §2

[4] = target: T2, biotin conjugated 24 amino acid peptide …; assay: method and target not given; reference is the original scFv
[5] = target: T2, biotin conjugated 24 amino acid peptide …; assay: ELISA, diabody titration on mEMP2 peptide on streptavidin plates
Protocol: as §1, §2

[6] = target: T1, biotin conjugated 24 amino acid peptide …; assay: ELISA on peptide-coated plates
Protocol: as §1, §2

[7] = target: T1, biotin conjugated 24 amino acid peptide …; assay: ELISA on cognate EMP2 peptide (data not shown)
[8] = target: T2, biotin conjugated 24 amino acid peptide …; assay: ELISA on cognate EMP2 peptide (data not shown)

B1: anti-EMP2 diabody KS49 (other)
chain: MAQVQLVQSGGGVVQPGRSLRLSCAASGFTFSSYAMHWVRQAPGKGLEWVAVISYDGSNKYYADSVKGRFTISRDNSKNTLYLQMNSLRAEDTAVYYCARDRRGRKSAGIDYWGQGTLVTVSSSGGGSDIQMTQSPSSLSASVGDRVTITCQASQDISNYLNWYQQKPGKAPKLLIYAASSLQSGVPSRFSGSGSGTDFTLTISSLQPEDFATYYCLQDYNGWTFGQGTKVDIKRAAAEQKLISEEDLNGAAHHHHHH
notes: Diabody: bivalent dimer of a VH-5 aa linker-VL chain with c-Myc and 6 His tags, made in E. coli TG1; Selected against the hEMP2 peptide; also called K49; anti-hEMP2 diabody
Q: What does the source list for B1?
A: fold increase in binding activity compared to original scFvs [1]: > 20 fold; EC50 [2]: 0.0531 µg/mL; binding result [3]: no binding

B2: anti-EMP2 diabody KS83 (other)
chain: MAQVQLVESGGGLVQPGGSLRLSCAASGFTFSSYAMHWVRQAPGKGLEWVAVISYDGSNKYYADSVKGRFTISRDNSKNTLYLQMNSLRAEDTAVYYCARTVGATGAFDIWGQGTMVTVSSSSGGGSDIVMTQSPSTVSASVGDRVIIPCRASQSIGKWLAWYQQKPGKAPKLLIYKASSLEGWVPSRFSGSGSGTEFSLTISSLQPDDSATYVCQQSHNFPPTFGGGTKLEIKRAAAEQKLISEEDLNGAAHHHHHH
notes: Diabody: bivalent dimer of a VH-5 aa linker-VL chain with c-Myc and 6 His tags; Selected against the mEMP2 peptide; also called K83; diabody 83
Q: Which results are given for B2?
A: fold increase in binding activity compared to original scFvs [4]: > 20 fold; EC50 [5]: 0.00932 µg/mL; binding result [6]: no binding

B3: KS49 monovalent scFv (scFv)
scFv: MAQVQLVQSGGGVVQPGRSLRLSCAASGFTFSSYAMHWVRQAPGKGLEWVAVISYDGSNKYYADSVKGRFTISRDNSKNTLYLQMNSLRAEDTAVYYCARDRRGRKSAGIDYWGQGTLVTVSSGGGGSGGGGSGGGGSDIQMTQSPSSLSASVGDRVTITCQASQDISNYLNWYQQKPGKAPKLLIYAASSLQSGVPSRFSGSGSGTDFTLTISSLQPEDFATYYCLQDYNGWTFGQGTKVDIKRAAAEQKLISEEDLNGAAHHHHHH
notes: The original scFv before the linker was shortened; also called KS49 scFv
Q: Which EC50 [7] does the source give for B3 here?
A: Its EC50 is over 2 µg/mL.

B4: KS83 monovalent scFv (scFv)
scFv: MAQVQLVESGGGLVQPGGSLRLSCAASGFTFSSYAMHWVRQAPGKGLEWVAVISYDGSNKYYADSVKGRFTISRDNSKNTLYLQMNSLRAEDTAVYYCARTVGATGAFDIWGQGTMVTVSSSGGGGSGGGGSGGGGSDIVMTQSPSTVSASVGDRVIIPCRASQSIGKWLAWYQQKPGKAPKLLIYKASSLEGWVPSRFSGSGSGTEFSLTISSLQPDDSATYVCQQSHNFPPTFGGGTKLEIKRAAAEQKLISEEDLNGAAHHHHHH
notes: The original scFv before the linker was shortened; also called KS83 scFv
Q: For B4, which EC50 [8] is on record?
A: The EC50 was over 2 µg/mL.
